# Assay results: the DeepSol protein solubility set
# Assay: soluble on expression in E. coli; label from the status in PepcDB or PDB records
row,Sequence,soluble on expression in E. coli
1,MGSDKIHHHHHHARPLSDVLNDVAARFQVRLKYDVDTVGRVLPYADFRIRPYSLEETLTNVLSPFDYKFVKQSDKVYKLKPYEYARRTDADGEKMLAYLSGLYSDKSQWEQRREILRKEVRQRLGLDDMLGKTVKDAKPVLSKIRKFDGYTVQNFALETLPGLYVCGSVYAPRTKGKHALIICPNGHFGQGRYRKDQQQRMATLARMGAVCVDYDLYGWGESALQVGGKAHHTADAHTIQAMNGIWILDYMLANRKDIDPACIGVNGGSGGGTQTVLLTVLDDRFTAAAPVVSLASHFDGGCPCESGKPIQLAGGGTCNAELAALFAPRPMLVVSDGGDWTATVPRLEYPYLQRIYGFYGATDKVSNVHLPQERHDFGPNKRNAVYDFFIDVFGLDRNMLDESKVTIEPEDALKSFGEKGEKLPAGALRYKE,not soluble
2,MGSDKIHHHHHHARRNVLRKTWMNPENSEIIKDGRMKALFLVGMTDGDDSRMRKVVMEEARIYGDMVVVDLKDTYEELPFKSLTTLLYGTSKASEFKLIGKIDEDIMFFPDKILPLLEQNLIDPSSESIYGMLFAEGGYVYRDKEHRWFVPDSTYGCDMFPPYTGGLFYLVTQDAAKKILNATKHRIFIPIEDALINGILANDCKIPRIHLPEIYGDHHSLTDEDTRGVLAWHTGKNDQQFLDYFYRKLSESRLKKKILDEKNKHLFY,not soluble
3,MGSDKIHHHHHHASPKKVAPEKKGVETINRATAEAHIGFLACDELEGREAGWKGGRIAGNYIISCLKQMGIKPLDGDYIQPFDVYHAERQVKGKRWQVHPDSIAELKKVVYQKLALRNILGKIEGKNPNEIVIIGAHYDHIGYDPMLEGDQIYNGADDNASGVQAVLQVARAFLATGEQPERTVIFAFWDGEEKGLLGSRYFAMNYPDIKKVKGYLNYDMIGRNNREDQPDYFVYFYTAAHQAFGDWLKKDIEDYRLQLSPDYRAWDNPVGGSDNGTFAKLGIPIIWYHTDAHPDYHLPGDETQKINWLKIVDITKASFLAMWKLANEKKY,not soluble
4,MGSDKIHHHHHHATSKHVYGENENPYLKTNADAVVSTKAEFPISRLEAKTVKLTDYAEKFHTYLGMTVDETLAALSNGSVVFYPINISKNCWNRTAPTKGTNGWYYNTAGGVCDAASGIASIELDATKKELVLNVLETASVGTAISINVGFAINNGANFDDYVRFAFDVTVTDPGRIVVANTIPAGDYSAFSIEFADYQEVIESCLGLTLSEFITACKEPGGPIALYMVDSESGEWNTTSDYTAGGSGIGYWLTSNLKVTNWSDDGSTGSVLFVETQENGDMVNIGRNPASTSGSVFNVNFVYALKEDNSKFVEFIVKATLE,not soluble
5,MGSDKIHHHHHHCNNSNTKDNDKLFIGNGKFCQAKRLNGLGAIYDDDYIFFDCENQIYESYNYSNKKNDKKLNVNCRNSACSHNNDKCEAYVELGEYFVFNSKIYKYYNKSKVVSGENRLYGSIVEEESGKTVFKNSIPTDMSSELAIDDSEAILYVRVLSDDIIKVDGDRHAYLLDKNFNIIYCHYNIGKFPWGAILNGNYYYINDINEIVKVNLTTFESKSIASNGKAFMADNDENFIYYSNEFSELYKLSPDDESSIKIADNALFFSVQNKYIYASGGDNGNKIIYDKNGKIIADYSACVNMGADSAFQINDKIYTIFNGGVAYMDLDGKNYGEMMQ,not soluble
6,MGSDKIHHHHHHCWTYHYSEKPMNWENARKFCKQNYTDLVAIQNKREIEYLENTLPKSPYYYWIGIRKIGKMWTWVGTNKTLTKEAENWGAGEPNNKKSKEDCVEIYIKRERDSGKWNDDACHKRKAALCYTASCQPGSCNGRGECVETINNHTCICDAGYYGPQCQYVVQCEPLEAPELGTMDCIHPLGNFSFQSKCAFNCSEGRELLGTAETQCGASGNWSSPEPICQVVQCEPLEAPELGTMDCIHPLGNFSFQSKCAFNCSEGRELLGTAETQCGASGNWSSPEPICQETNRSFSKIKEGDYN,not soluble
7,MGSDKIHHHHHHDEEPKSSLTLDTYYKTSADIIGNVNYLYRDGAPDKMGNMTGAYRGSSLSVMNMVTGYFVNEYEGQEVDCSYARQLTRQNFTQSCCNYLTNDTWKGCYKSINVANAVIKYVDGVEMDGQAQYKAEARFFRALNYFYLVKMFGDVPMITEPTEDATLVEYPARTAASEVYKTVIIPDLQFAVENLPDATFAGNSHRVTKYAADMLLADVYMRLGEYANAITPLKDVINSGKFALATNDNLAEGSAFNKLRTTDDLPEVIYAREYDAAISPNGNIPVHAFNLISPTFFANSSTGNKYSLWVNVYGVSERYLNVYGEKDLRAQMNQFFHRTYTHPVDGTTLDMKMLCNWYWYDETAILETGKGTKDWNFYRYAETLLSAAEAIAQSSGVNAEAAGYLAQVKARANMEGKDVSTIASELQRLGKQAFIEECWKERLREFPLEMKIWDDCVRTGKFPQISATNKGEVQFVDLIGATNGSGAKFKETDLYWPIPVNEIQRNPNLTQNEGYSAK,not soluble
8,MGSDKIHHHHHHDLDGAITTPAAVELALNGIYYSLPGNGFNVIFPTVSGSFKAGTMWRQEIVSAGNAVYYSERMLPTLSFSDATEWDADYAVIKNANFLETACNRMSDGEFSGNRRAEVLGEIAYLRALAYFNILVRYCEFWDMNSEYGVVMRNEAPSVSNALKARSSVADSYQYILDQLEIAIEKAPDWKKLSQASKEAAKALKARVLLYAGKYTEAVAAVNDAIDTNSPLPEANYGDVFDKFSTTKEILFARVFDQKDATNTSTRQQCYGNSPTKKQGYWGPTNEYVELVGDDPRADAIFSKVDSLMDSRSSAVAYNLKSVKKLLNDANDMPVIFSRVSELYLIKAEALYRSGASISEAYAPIRKLRERAGAEIILPANNEELETAIFNEWMLELSFENWHEWFAMIRFAGYTEKPDFTRLLALNKTLREALEKEYEKSEAQGDNYYQRIIDRRIDAIPSSEISSNLECKQNPGY,not soluble
9,MGSDKIHHHHHHEDPRGKLTPENFFSTQDELNMSIYALYQKVNLSQVYTNMQLPQWQGDDITTNPGSNKQPAAEMDKFAAANNNKGVKDAWNMHYAIVKAANLIIQGASKTPTTQDEINIALGQAKFWRAYAYFTLVRLWGPLPMNLDNVNDDYTKPLSPVEEVYGHIVQDLTEAEAVLPTGYSGSPRFLNGVNVYVTRQAAKSTLAAVYMAMAGWPMNKTEYYAKAAEKAKEVIEGVNRGEYEYKLDKDYKDVYAMSNNYNNETVLGINYSPFVDWAQDSELTSCNQFESLGGWGDAWGEIRFWKEFPDGPRKDATYDPKIRLKDGTLVDWWELKEDGTPVVPEHHPMFSIFSVNWDPASKVNTSAPYDYTKPASQNMCNDHRHRIIRYSEVLLWYAEAKARTGQTDELAFKCLNDVRERAGLEPLTGLSADDLAEAAYKEHGWEVAGYWVALVTRRADQFRMNRLKDTFKERAENTAVEVADGILVKESVEYTNRTWSDNLMYLPYPDMDSQKNPNLVR,not soluble
10,MGSDKIHHHHHHEEPCPENGRVTFTVAQTRATQEGTFEKGNSIGVFAIEPKTGVYWATNNKYTYDGRAFKPATEEDNIIVTVGTDLDFYVYYPFKEGQTDITAISHAIGDQQEKSGWLSADFLTASYTDVIQDYTIPLHFEHRLSTVEVRVEGSDRVDGARMENVKYGSRFNLLTGKTVTDETRGSYAMYRYSSGNLTTVFRMTIPAQTLTTTSNYITLTGTPDMKLRGTSDMTTEPGRIHNYRIDYKIRITVLDYPQGGSTTGAGLYDMGSTCTVTASVNGGYEFAGWYEDGRIVSNDTRYSFEVLSDRTLEPRYRNYGGWSVTLTANPSVIGWQGGRSSLVAGASRGVFVNGVAENTQTAVPSLSGGAEGFLLSGNTVTVSENPSGSSRSCVFTASHGGSSATATITQEGSPVSYYFSYADGGTSHTEYPDDSSAGSFILDITSYKKTGNSTKALSWNASGDSWIHVNGSSVSYDENPAKERRTGLVTLKQDESGKTLSLKIVQPGKTSIDIEQ,not soluble
11,MGSDKIHHHHHHEETRTEVEKKNYMNNAEEAKDVLLGVYRTNTLDAMYGYYLSILFNLGTDISQVEGSGNENFRIIPTNSFPTTQSEVQQTWAALYTGIYRANDFLERISNKIGSYTTTDKKLATLYIAEARALRGMFYFELVRRFGNVVLMTSTQMSNQNPATYVQSAPEKVYEYIEDDLLYACDILPYATDDQYRESNDYRFSKGAALGLLTKVYATWAGYPVKDESKWEAAAKTARILVESGKHGLLKDYEQLWKNTCNGTWDPTESLIEISFYSPTVSGNSDPVGRIGKWNGVKTTAIAGVRGSCAANVKVVHTFVLDWREDVSDIRRDLSIANYQYTDTKKSLWVAGASDTDESAAEKDADPTKAQKNKQNYTPAKWDIQKYVTTNSFINNDKSNVNWYFLRYADVLLLYAEALNEWKHGPDAEAYNAINAVRRRGYGNPSNTSACDLPQGLDETSFREAVRKERSYELSFEGHRRQDLIRWGIYYKTVQATAKELGYWWEGTGSPNYSVATYTEEGKHELFPIPQRDMDLCIQFNQNPKW,not soluble
12,MGSDKIHHHHHHEEYFNAIRTNIQLSGVDIKVVGITSVKSNEGKSTTAASLAIAYARSGYKTVLVDADIRNSVMPGFFKPMTKITGLTDYLAGTTDLSQGLCDTDIPNLTVIESGKVSPNPTALLQSKSFENLLATLRRYYDYVIVDCPPLGLVIDAAIIAQKCDAMVAVVEAGNVKCSSLKKVKEQLEQTGTPFLGVILNKYDIATEKYGEYGNYGKKA,not soluble
13,MGSDKIHHHHHHENLYFQGMRDHVEIGIGREARRTYSLDDISVVSSRRTRSSKDVDTTWHIDAYKFDLPFMNHPSDALASPEFVIEMGKQGGLGVINAEGLWGRHADLDEAIAKVIAAYEEGDQAAATRTLQELHAAPLDTELLSERIAQVRDSGEIVAVRVSPQNVREIAPIVIKAGADLLVIQGTLISAEHVNTGGEALNLKEFIGSLDVPVIAGGVNDYTTALHMMRTGAVGIIVGGGENTNSLALGMEVSMATAIADVAAARRDYLDETGGRYVHIIADGSIENSGDVVKAIACGADAVVLGSPLARAEEAAGKGYFWPAVAAHPRFPRGVVTESVDLDEAAPSLEQILHGPSTMPWGVENFEGGLKRALAKCGYTDLKSFQKVSLHVN,soluble
14,MGSDKIHHHHHHENLYFQGMTLSITSNFDAGAIDVVSCERADAIRLRVRGDNRSEFAQWFYFRLTGARGERCVMTFENANDCAYPAGWRDYRAVASYDRVNWFRVPTSYDGQMLTIDHTPEFDSIHYAYFEPYSEERHSEFLGAVQQMPQASVVELGRTVEGRPMSLVVLGTPDEAGAAKKKVWIIARQHPGESMAEWFIEGLVKRLVGWGDWSGDPVARKLYDHATFYIVPNMNPDGSVHGNLRTNAAGANLNREWMEPDAERSPEVLVVRDAIHAIGCDLFFDIHGDEDLPYVFAAGSEMLPGFTEQQRVEQSAFIDSFKRASPDFQDEHGYPPGKYREDAFKLASKYIGHRFGCLSLTLEMPFKDNANLPDEHIGWNGARSASLGAAMLGAILEHVRAFA,soluble
15,MGSDKIHHHHHHEQDNSVSEKQVDVVYNDPRDPFEGFNRAMWDLNYNVLDRYIYRPVAHTYKDYVPSPVKSGLHNFVRNLEEPNALVNNTLQGKFGWAANAGGRFVVNSTIGLLGVVDVADMMGMHRKQDDFNEVLGYYGVPNGPYFMAPFFGPYVTRELASDWVDGLYFPLSELTMWQSVVKWGIKSLHVRTEAIDQERLLDNALDPYTFVKDAYLQHMDYKVYDGNVPSNQEDDELLDEYMQELE,not soluble
